Measured values from the supplement of paper PMC9170038.

Test system: K4 kissing-loop RNA reporter
Experiment: apparent KD of K4 kissing-loop reporter; higher = weaker reporter binding
Conditions: Eterna round: R107
Protocol: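 RNA-MaP round R107: designed RNA switches with theophylline, tryptophan, arginine or FMN aptamers are transcribed on-chip within common flanks. They are titrated with a labelled K4 kissing-loop RNA reporter in RNA-MaP buffer (100 mM Tris pH 7.5, 80 mM KCl, 4 mM MgCl2), without ligand or with the indicated ligand. Median apparent KD per design.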

[1] = input ligand: theophylline 20 uM
[2] = input ligand: tryptophan 2.4 mM
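Also: bound reporter read as fluorescence of individual clusters on recovered sequencing chips by microscopy, with normalized cluster intensities fitted with a binding model.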

AAAGGCAAAGCCCGAGUGAUGUUCGACGAUACCAGCCUCGAUAGAGGCCCUUGGCAGCGUAAAUGAUCAUGAAGCCAAGGAAUAA [whbob_Ex_Theo_A_th67]
apparent KD of K4 kissing-loop reporter (input ligand: FMN 200 uM): 352 nM
apparent KD of K4 kissing-loop reporter (input ligand: arginine 13.2 mM): 302 nM
apparent KD of K4 kissing-loop reporter (input ligand: none): 352 nM
apparent KD of K4 kissing-loop reporter [1]: 260 nM
apparent KD of K4 kissing-loop reporter [2]: 313 nM

CAUACGCAUGGAGGAUAUGAGAUUUCUCAUGUCAUUUAAUAUUCUCAGUGAUGUUGAGAUUUUGGCUCAGAAGGCCAUGUGUAUG [Ex FMN B 19]
apparent KD of K4 kissing-loop reporter (input ligand: FMN 200 uM): 176 nM
apparent KD of K4 kissing-loop reporter (input ligand: arginine 13.2 mM): 249 nM
apparent KD of K4 kissing-loop reporter (input ligand: none): 281 nM
apparent KD of K4 kissing-loop reporter [1]: 297 nM
apparent KD of K4 kissing-loop reporter [2]: 273 nM

UGGCGGACGAUCCGGAGUGAUGUUCCGGAUACCAGCAGAAGAGCCUGCCCUUGGCAGCCGUACGACGCUGGGAGAGUCCGGCGUC [Soteina]
apparent KD of K4 kissing-loop reporter (input ligand: FMN 200 uM): 83.8 nM
apparent KD of K4 kissing-loop reporter (input ligand: arginine 13.2 mM): 90.3 nM
apparent KD of K4 kissing-loop reporter (input ligand: none): 81.1 nM
apparent KD of K4 kissing-loop reporter [1]: 66.7 nM
apparent KD of K4 kissing-loop reporter [2]: 76.9 nM

CGAGAAAGAGCGACUGGCGAUCUGUCUGAAGGAGCGGGUGCUAGCCCAGGUAGGUCGCAGACUUUGACGCCAGUGAUGUUGGCGG [Titidiisxe]
apparent KD of K4 kissing-loop reporter (input ligand: FMN 200 uM): 210 nM
apparent KD of K4 kissing-loop reporter (input ligand: arginine 13.2 mM): 175 nM
apparent KD of K4 kissing-loop reporter (input ligand: none): 222 nM
apparent KD of K4 kissing-loop reporter [1]: 134 nM
apparent KD of K4 kissing-loop reporter [2]: 178 nM

GCCGUAGAUUGAAGGAGCGGUAUGGGCGUUGGCUGAGUGAUGUUCAGGGAAAGUGGCUUCUACCAGGUAGGUCGCAAUCUACGGC
apparent KD of K4 kissing-loop reporter (input ligand: FMN 200 uM): 164 nM
apparent KD of K4 kissing-loop reporter (input ligand: arginine 13.2 mM): 129 nM
apparent KD of K4 kissing-loop reporter (input ligand: none): 157 nM
apparent KD of K4 kissing-loop reporter [1]: 170 nM
apparent KD of K4 kissing-loop reporter [2]: 137 nM

GCCAGCAGUACUGAUACCAGACUGCAUGUAGUGAUGUUGCAUAAGGGCAUAGAUGUCUCAGUCCCUUGGCAGCGGUACUGUUGCA [#10 K4 Theophylline B Same State]
apparent KD of K4 kissing-loop reporter (input ligand: FMN 200 uM): 335 nM
apparent KD of K4 kissing-loop reporter (input ligand: arginine 13.2 mM): 252 nM
apparent KD of K4 kissing-loop reporter (input ligand: none): 330 nM
apparent KD of K4 kissing-loop reporter [1]: 199 nM
apparent KD of K4 kissing-loop reporter [2]: 241 nM

UGUCAUUGGUCGGCCGCCACUUGAAGGUCAAAGACCAUAGAGUGAUGUUCUAAGACGAAAGUCACAAGGACCGGGACCGAUGACU [TrypBS 3 #SwitchBubble #K4Middle]
apparent KD of K4 kissing-loop reporter (input ligand: FMN 200 uM): 361 nM
apparent KD of K4 kissing-loop reporter (input ligand: arginine 13.2 mM): 134 nM
apparent KD of K4 kissing-loop reporter (input ligand: none): 133 nM
apparent KD of K4 kissing-loop reporter [1]: 265 nM
apparent KD of K4 kissing-loop reporter [2]: 607 nM

AAUGUACAGGGAAGGAGCGUAGUCCAGUGAUGUUGGAAUUAAAUACCAGUGAUGUUGGUUAUACAGGUAGGUCGCCCUAAAGUGC [KL-XARG-B20]
apparent KD of K4 kissing-loop reporter (input ligand: FMN 200 uM): 86.3 nM
apparent KD of K4 kissing-loop reporter (input ligand: arginine 13.2 mM): 72.3 nM
apparent KD of K4 kissing-loop reporter (input ligand: none): 81.9 nM
apparent KD of K4 kissing-loop reporter [1]: 89.5 nM
apparent KD of K4 kissing-loop reporter [2]: 73.2 nM

CCAUUCUGUUACGAUACCAGUCUAAUAUAUUUGAUCAAUACCCUCGCCGAGUGAUGUUCGGACCCUUGGCAGCGUCUGGGACAGG [bbybmullin]
apparent KD of K4 kissing-loop reporter (input ligand: FMN 200 uM): 453 nM
apparent KD of K4 kissing-loop reporter (input ligand: arginine 13.2 mM): 377 nM
apparent KD of K4 kissing-loop reporter (input ligand: none): 410 nM
apparent KD of K4 kissing-loop reporter [1]: 440 nM
apparent KD of K4 kissing-loop reporter [2]: 364 nM

AGUGUUGUAUGGCGGUUUGUCACUUAGGAUCAGGAUAUAUAAACAAAUAGAAGGGAUGGCGGAGUGAUGUUCCGCCGGCCGCCAU [FMN A Exl V7]
apparent KD of K4 kissing-loop reporter (input ligand: FMN 200 uM): 132 nM
apparent KD of K4 kissing-loop reporter (input ligand: arginine 13.2 mM): 128 nM
apparent KD of K4 kissing-loop reporter (input ligand: none): 121 nM
apparent KD of K4 kissing-loop reporter [1]: 126 nM
apparent KD of K4 kissing-loop reporter [2]: 121 nM

UGAUAGGACAGAAGGAGCGGAAGUGAUGUUUCCUAAAGGAUAAAGGUGUCAAAGACACCCUUCCAGGUAGGUCGCUGUCCUAUCU [ArgBX 16 #Palindromic #SwitchBubble #StaticStem]
apparent KD of K4 kissing-loop reporter (input ligand: FMN 200 uM): 549 nM
apparent KD of K4 kissing-loop reporter (input ligand: arginine 13.2 mM): 923 nM
apparent KD of K4 kissing-loop reporter (input ligand: none): 579 nM
apparent KD of K4 kissing-loop reporter [1]: 532 nM
apparent KD of K4 kissing-loop reporter [2]: 566 nM

UAUAGAAACGUCCUAUCAAUAAAAUGGGAAGGAGCGAGGAAGAACUCAGGUAGGUCGCCCAAUAACCUUAGUGAUGUUAAGGAAA [Version 1]
apparent KD of K4 kissing-loop reporter (input ligand: FMN 200 uM): 126 nM
apparent KD of K4 kissing-loop reporter (input ligand: arginine 13.2 mM): 112 nM
apparent KD of K4 kissing-loop reporter (input ligand: none): 137 nM
apparent KD of K4 kissing-loop reporter [1]: 156 nM
apparent KD of K4 kissing-loop reporter [2]: 117 nM

AUGUAUGAAUUAGGAUAUCGUUAGCCUAUCAUAUAUAUGAUAAAUGGAUAUGUCGUAGUGAUGUUACGAGAAGGAGUGUGGAGUA [KL-XFMN-B7]
apparent KD of K4 kissing-loop reporter (input ligand: FMN 200 uM): 55.8 nM
apparent KD of K4 kissing-loop reporter (input ligand: arginine 13.2 mM): 62.9 nM
apparent KD of K4 kissing-loop reporter (input ligand: none): 55.4 nM
apparent KD of K4 kissing-loop reporter [1]: 82.7 nM
apparent KD of K4 kissing-loop reporter [2]: 39 nM

GGGAGUAGUGCGGCCGCCACUGAGAAAGAAGAAGAAUAUAGUGAUGUUAUAUAGGAAAGGAAGAAUAGGACCGGGCAUUAGAUUU [SSTRyptB.J]
apparent KD of K4 kissing-loop reporter (input ligand: FMN 200 uM): 229 nM
apparent KD of K4 kissing-loop reporter (input ligand: arginine 13.2 mM): 173 nM
apparent KD of K4 kissing-loop reporter (input ligand: none): 263 nM
apparent KD of K4 kissing-loop reporter [1]: 238 nM
apparent KD of K4 kissing-loop reporter [2]: 257 nM

UAGCGCAACCUGCUUACGUAUGAGCCGGAAGGAGCGGCAGAAUUGCCAGGUAGGUCGCCGGCCCAGUGAUGUUGGGAUGGUGUGG [Usritiis]
apparent KD of K4 kissing-loop reporter (input ligand: FMN 200 uM): 265 nM
apparent KD of K4 kissing-loop reporter (input ligand: arginine 13.2 mM): 226 nM
apparent KD of K4 kissing-loop reporter (input ligand: none): 252 nM
apparent KD of K4 kissing-loop reporter [1]: 223 nM
apparent KD of K4 kissing-loop reporter [2]: 228 nM

GGAUAGGACGGAGGAUAUGGGCUAGGCAAGAAUAACUUGUCUAGCAAAUCCAUGAGGAGUGAUGUUCCAGAAGGUUGUCCUAUCG [FmnBX 1 G10+U75]
apparent KD of K4 kissing-loop reporter (input ligand: FMN 200 uM): 167 nM
apparent KD of K4 kissing-loop reporter (input ligand: arginine 13.2 mM): 94.7 nM
apparent KD of K4 kissing-loop reporter (input ligand: none): 85.2 nM
apparent KD of K4 kissing-loop reporter [1]: 106 nM
apparent KD of K4 kissing-loop reporter [2]: 75.4 nM
